Experimental data published in patent US20240218064A1 (AstraZeneca / MedImmune, published 2024).

Key:
cynomolgus monkey LOX-1 = cynomolgus monkey LOX-1 (cynomolgus monkey, UniProt A0A2K5VQ73 79-291); assay: BIAcore (SPR)
[1] = biological target: T1, human LOX-1 (lectin-like oxidized low density lipoprotein receptor-1) (human, UniProt P78380 61-273); assay: BIAcore (SPR); Fab, not full mAb; LOX-1
[2] = biological target: T1, human LOX-1 (lectin-like oxidized low …); assay: in vitro inhibition of ligand binding to human LOX-1; competitor ligand CRP; ligand CRP
Description: (§1) FIG. 3. MEDI6570 inhibition of ligand binding. AGE-BSA=advanced glycation end products-bovine serum albumin; CRP=c-reactive protein; IgG-immunoglobulin G; OxLDL=oxidized low-density lipoprotein. Antibodies were titrated across a 384 well dilution plate in assay buffer (PBS/0.1% BSA/0.01% Tween 20) over 24 points in duplicate.
(§2) The ability of MEDI6570 to inhibit binding of the LOX-1 ligands oxLDL, AGE (advanced glycation end products, in this case glycated bovine serum albumin, BSA) and CRP was determined using in vitro assays. AGEs are known ligands of LOX-1. They commonly occur in patients that have poorly regulated levels of blood glucose, which is a risk factor for cardiovascular disease.

[3] = biological target: T1, human LOX-1 (lectin-like oxidized low …); assay: in vitro inhibition of ligand binding to human LOX-1; competitor ligand oxLDL; ligand oxLDL
Description: as §1, §2

[4] = biological target: T1, human LOX-1 (lectin-like oxidized low …); assay: in vitro inhibition of ligand binding to human LOX-1; competitor ligand AGE-BSA; ligand AGE-BSA
Description: as §1, §2

[5] = biological target: T2, soluble LOX-1 (sLOX-1) in sera of participants with T2DM (human, UniProt P78380 89-273, limits assumed); assay: sLOX-1 in sera of participants with T2DM; the paragraph names BIAcore, the method for this value is not made clear; full mAb; sLOX-1 in sera of participants with T2DM
T2 construct: domain: cleaved soluble domain of LOX-1; Endogenous protein in patient serum; also called soluble lectin-like oxidized low-density lipoprotein receptor 1

Kd (cynomolgus monkey LOX-1) [nM] | Kd [1] [nM] | IC50 [2] [nM] | IC50 [3] [nM] | IC50 [4] [nM] | Kd [5] [nM] | Binder
0.116 | 0.056 | – | – | – | – | MEDI6570 Fab (Fab, V domains shown, also called Fab of the antibody MEDI6570) VH: QVQLVQSGAEVKKPGASVKVSCKVSGYTLTELSMHWVRQAPGKGLEWMGGFDPEDFKYHTHQKFQGRVTMTEDTSTDTAYMELSSLRSEDTAVYYCALVWGTQGKGVRGWDYYYGMDVWGQGTTVTVSS VL: QSVVTQPPSVSGAPGQRVTISCTGSSSNIGAGYDVHWYQQLPGTAPKLLIYGNSNRPSGVPDRFSGSKSGTSASLAITGLQAEDEADYYCQSYDSSLSGWVFGGGTKLTVL
– | – | 4.8 | 0.34 | 0.54 | ~0.173 | MEDI6570 (antibody, human IgG1, lambda, V domains shown, Fully human IgG1-lambda; also called LX5140110-IgG1-TM) VH: QVQLVQSGAEVKKPGASVKVSCKVSGYTLTELSMHWVRQAPGKGLEWMGGFDPEDFKYHTHQKFQGRVTMTEDTSTDTAYMELSSLRSEDTAVYYCALVWGTQGKGVRGWDYYYGMDVWGQGTTVTVSS VL: QSVVTQPPSVSGAPGQRVTISCTGSSSNIGAGYDVHWYQQLPGTAPKLLIYGNSNRPSGVPDRFSGSKSGTSASLAITGLQAEDEADYYCQSYDSSLSGWVFGGGTKLTVLG
